# Measurements: PMC10440987, “SLG2 specifically regulates grain width through WOX11 ‐mediated cell expansion control in rice”
# Positions count from the first letter of the chain named.
# T1: WOX11-MBP (Oryza sativa (rice; cultivar of the …, UniProt Q0D3I7 1-262)
# T1 sequence: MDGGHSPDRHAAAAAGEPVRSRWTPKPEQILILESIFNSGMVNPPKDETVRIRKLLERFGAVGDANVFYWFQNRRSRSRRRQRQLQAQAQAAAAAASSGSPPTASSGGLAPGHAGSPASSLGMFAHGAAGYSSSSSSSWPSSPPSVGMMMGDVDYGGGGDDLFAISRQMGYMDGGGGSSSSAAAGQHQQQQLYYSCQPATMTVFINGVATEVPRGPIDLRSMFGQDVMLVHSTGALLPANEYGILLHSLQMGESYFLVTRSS
# B1: pOsEXPB7 hot probe (dsDNA)
# DNA 1: AGGGATCGATCGAAATTAATGGCGGGCAGGAGCAGGA
# DNA 2: TCCTGCTCCTGCCCGCCATTAATTTCGATCGATCCCT
# B2: pOsEXPB7 cold probe (dsDNA)
# DNA 1: B1 DNA 1
# DNA 2: B1 DNA 2
# B3: pOsEXPB7 mutant probe (dsDNA)
# DNA 1: B1 DNA 1 with T17C, A18C
# DNA 2: B1 DNA 2 with T20G, A21G
# Tests used:
# WOX11-MBP [1] = target: T1, WOX11-MBP; experiment: EMSA; LightShift Chemiluminescent EMSA Kit (Thermo 20148), manufacturer's instructions; buffer, salt, pH and temperature not stated; conditions: protein: recombinant; tags: MBP; label: 5' biotin; blunt
# WOX11-MBP [2] = target: T1, WOX11-MBP; experiment: competition EMSA; unlabelled competitor against biotin hot probe N1; LightShift Chemiluminescent EMSA Kit (Thermo 20148), manufacturer's instructions; buffer, salt, pH and temperature not stated; conditions: protein: recombinant; tags: MBP; blunt
binder,measurement,setting,value
B1,binding result,WOX11-MBP [1],binds
B2,binding result,WOX11-MBP [2],binds
B3,binding result,WOX11-MBP [1],no binding
